# Experimental data taken from the Immune Epitope Database (IEDB).
# Experiments:
# [1] = molecular target: HLA-A*02:03; assay: IEDB peptide-MHC binding, purified MHC/competitive/radioactivity; filed as Kd, often an IC50 or EC50 that approximates it; ≥ and ≤ were set here for values at or beyond the usual limits of such assays
# [2] = molecular target: HLA-A*02:02; assay: as above
# [3] = molecular target: HLA-B*54:01; assay: as above; conditions: source organism: Vaccinia virus WR
# [4] = molecular target: HLA-B*51:01; assay: as above
# [5] = molecular target: HLA-B*35:01; assay: as above; conditions: source organism: Vaccinia virus WR
# [6] = molecular target: HLA-B*53:01; assay: as above; conditions: source organism: Vaccinia virus WR
# [7] = molecular target: HLA-B*07:02; assay: as above; conditions: source organism: Vaccinia virus WR
# [8] = molecular target: HLA-A*02:06; assay: as above
# [9] = molecular target: HLA-A*68:02; assay: as above
# [10] = molecular target: HLA-A*33:01; assay: as above; conditions: source organism: Vaccinia virus WR
# [11] = molecular target: HLA-A*02:01; assay: as above
# [12] = molecular target: HLA-A*68:01; assay: as above; conditions: source organism: Vaccinia virus WR
# [13] = molecular target: HLA-A*03:01; assay: as above; conditions: source organism: Vaccinia virus WR
# [14] = molecular target: HLA-A*11:01; assay: as above; conditions: source organism: Vaccinia virus WR
# [15] = molecular target: HLA-A*31:01; assay: as above; conditions: source organism: Vaccinia virus WR
# [16] = molecular target: HLA-A*02:01; assay: IEDB peptide-MHC binding, purified MHC/competitive/fluorescence; ≥ and ≤ were set here for values at or beyond the usual limits of such assays
# [17] = molecular target: HLA-A*03:01; assay: as above
# [18] = molecular target: HLA-A*11:01; assay: as above
# [19] = molecular target: HLA-B*15:01; assay: as above
# [20] = molecular target: HLA-A*02:01; assay: IEDB peptide-MHC binding, purified MHC/competitive/fluorescence; filed as Kd, often an IC50 or EC50 that approximates it; ≥ and ≤ were set here for values at or beyond the usual limits of such assays; conditions: source organism: Homo sapiens
# [21] = molecular target: HLA-A*02:03; assay: as above
# [22] = molecular target: HLA-A*69:01; assay: as above; conditions: source organism: Homo sapiens
# [23] = molecular target: HLA-B*57:01; assay: IEDB peptide-MHC binding, purified MHC/competitive/radioactivity; filed as Kd, often an IC50 or EC50 that approximates it; ≥ and ≤ were set here for values at or beyond the usual limits of such assays
# [24] = molecular target: HLA-A*24:02; assay: IEDB peptide-MHC binding, purified MHC/competitive/fluorescence; ≥ and ≤ were set here for values at or beyond the usual limits of such assays
# [25] = molecular target: HLA-A*29:02; assay: IEDB peptide-MHC binding, purified MHC/direct/fluorescence; filed as Kd, often an IC50 or EC50 that approximates it; ≥ and ≤ were set here for values at or beyond the usual limits of such assays; conditions: source organism: Giardia lamblia ATCC 50803
# [26] = molecular target: HLA-A*01:01; assay: as above; conditions: source organism: Giardia lamblia ATCC 50803
# [27] = molecular target: HLA-A*26:01; assay: IEDB peptide-MHC binding, purified MHC/competitive/radioactivity; filed as Kd, often an IC50 or EC50 that approximates it; ≥ and ≤ were set here for values at or beyond the usual limits of such assays; conditions: source organism: Dengue virus 2 Jamaica/1409/1983
# [28] = molecular target: HLA-A*03:01; assay: IEDB peptide-MHC binding, purified MHC/competitive/fluorescence; filed as Kd, often an IC50 or EC50 that approximates it; ≥ and ≤ were set here for values at or beyond the usual limits of such assays; conditions: source organism: Cryptosporidium parvum Iowa II
# [29] = molecular target: HLA-A*26:01; assay: as above; conditions: source organism: Cryptosporidium parvum Iowa II
# [30] = molecular target: HLA-B*57:01; assay: as above; conditions: source organism: Cryptosporidium parvum Iowa II
# [31] = molecular target: HLA-B*27:03; assay: as above; conditions: source organism: Cryptosporidium parvum Iowa II
# [32] = molecular target: HLA-B*46:01; assay: as above; conditions: source organism: Cryptosporidium parvum Iowa II
# [33] = molecular target: HLA-A*68:02; assay: as above; conditions: source organism: Cryptosporidium parvum Iowa II
# [34] = molecular target: HLA-B*39:01; assay: as above; conditions: source organism: Cryptosporidium parvum Iowa II
# [35] = molecular target: HLA-B*18:01; assay: as above; conditions: source organism: Cryptosporidium parvum Iowa II
# [36] = molecular target: HLA-B*15:01; assay: as above; conditions: source organism: Cryptosporidium parvum Iowa II
# [37] = source organism: Vaccinia virus WR
# [38] = source organism: Zaire ebolavirus
# [39] = source organism: Sudan ebolavirus
# [40] = source organism: Dengue virus 4 Dominica/814669/1981
# [41] = source organism: Trypanosoma cruzi
# [42] = source organism: Dengue virus 1 Brazil/97-11/1997
# [43] = source organism: Dengue virus 3 Martinique/1243/1999
# [44] = source organism: Dengue virus 2 Jamaica/1409/1983
# [45] = source organism: Vaccinia virus
# [46] = source organism: Mammarenavirus brazilense
sequence,measurement,setting,value
LLTACTIFYI,Kd,[1]; [37],11.8 nM
same,Kd,[2]; [37],2.72 nM
same,Kd,[3],≥ 27600 nM
same,Kd,[4]; [37],≥ 69600 nM
same,Kd,[5],≥ 69900 nM
same,Kd,[6],≥ 22100 nM
same,Kd,[7],≥ 69600 nM
same,Kd,[8]; [37],55.8 nM
same,Kd,[9]; [37],229 nM
same,Kd,[10],7390 nM
EVVMAYVGIK,Kd,[11]; [37],4000 nM
same,Kd,[12],6.68 nM
same,Kd,[13],413 nM
same,Kd,[1]; [37],15900 nM
same,Kd,[2]; [37],12000 nM
same,Kd,[3],7930 nM
same,Kd,[4]; [37],≥ 23200 nM
same,Kd,[5],≥ 23300 nM
same,Kd,[6],6770 nM
same,Kd,[7],9980 nM
same,Kd,[8]; [37],15000 nM
same,Kd,[9]; [37],2580 nM
same,Kd,[10],1170 nM
same,Kd,[14],97.7 nM
same,Kd,[15],786 nM
IALGVATAH,IC50,[16]; [38],≥ 223000 nM
same,IC50,[17]; [38],≥ 160000 nM
same,IC50,[18]; [38],10800 nM
same,IC50,[19]; [38],61100 nM
KNKLYLVDY,IC50,[19]; [37],34200 nM
SQGREAAVS,IC50,[19]; [38],26900 nM
TIIGTNGNH,IC50,[19]; [39],≥ 150000 nM
IRVEGNLRV,Kd,[20],≥ 20000 nM
same,Kd,[21]; source organism: Homo sapiens,≥ 20000 nM
same,Kd,[22],≥ 20000 nM
TTRLENVMW,Kd,[23]; [40],14.6 nM
GLLLLLLLLG,Kd,[11]; [41],171 nM
same,Kd,[1]; [41],330 nM
same,Kd,[2]; [41],456 nM
same,Kd,[8]; [41],420 nM
same,Kd,[9]; [41],1790 nM
MIRILIGFLV,Kd,[9]; [40],295 nM
SSYYATSYL,IC50,[16]; [39],3160 nM
same,IC50,[17]; [39],18500 nM
same,IC50,[24]; [39],955 nM
same,IC50,[18]; [39],2700 nM
same,IC50,[19]; [39],24200 nM
SQIPSSSPT,IC50,[16]; [39],30000 nM
same,IC50,[19]; [39],8510 nM
TTSQKTTWLP,Kd,[23]; [42],446 nM
NTFVLKKEV,Kd,[9]; [43],80.9 nM
MILVPLITV,Kd,[11]; source organism: Variola virus,14.6 nM
same,Kd,[1]; source organism: Variola virus,29.6 nM
same,Kd,[2]; source organism: Variola virus,138 nM
same,Kd,[8]; source organism: Variola virus,2.55 nM
same,Kd,[9]; source organism: Variola virus,0.278 nM
VVRLLTKPW,Kd,[23]; [44],27.9 nM
LMLCLHHAY,IC50,[16]; [38],38100 nM
same,IC50,[19]; [38],22300 nM
FIAFLRFLA,Kd,[9]; [42],≤ 1 nM
LTAHYCFLY,Kd,[25],≤ 1 nM
same,Kd,[26],7 nM
ETVSEESNV,Kd,[9]; source organism: Homo sapiens,44 nM
MMIQTRAAD,IC50,[16]; [45],≥ 104000 nM
same,IC50,[19]; [45],≥ 77200 nM
KFMAILQHH,IC50,[17]; [38],≥ 301000 nM
same,IC50,[24]; [38],16600 nM
same,IC50,[19]; [38],≥ 327000 nM
MAISGDDCV,Kd,[4]; [44],17400 nM
same,Kd,[9]; [44],65.8 nM
FASGRKSITL,Kd,[23]; source organism: Dengue virus 4 Philippines/H241/1956,6170 nM
AINIALIAV,Kd,[1]; [46],46.7 nM
same,Kd,[2]; [46],766 nM
same,Kd,[8]; [46],681 nM
same,Kd,[9]; [46],1300 nM
EIVDLMCHA,Kd,[27],1580 nM
same,Kd,[9]; [44],44 nM
GTSGSPIVNR,Kd,[23]; [42],104 nM
TTRMENLLW,Kd,[23]; [43],5.23 nM
KSWLVHWSL,Kd,[28],≥ 20000 nM
same,Kd,[29],≥ 20000 nM
same,Kd,[21]; source organism: Cryptosporidium parvum Iowa II,≥ 20000 nM
same,Kd,[30],32.8 nM
same,Kd,[31],≥ 20000 nM
same,Kd,[32],≥ 20000 nM
same,Kd,[33],≥ 20000 nM
same,Kd,[34],≥ 20000 nM
same,Kd,[35],≥ 20000 nM
same,Kd,[36],≥ 20000 nM
